According to article PMC13189624, “MORC2 mediates transcriptional regulation through liquid-liquid phase separation” (eLife, 2026):
Numbering of substitutions follows the chain as printed. Names and notes keep the numbering of the source.

B1: selenomethionine MORC2 CC3 domain (residues 901-1003), as crystallised (domain or fragment, human, UniProt Q9Y6X9 901-1003, looked up)
chain: LSTNHETIDLLVQILRNCLRYFLPPSFPISKKQLSAMNSDELISFPLKEYFKQYEVGLQNLCNSYQSRADSRAKASEESLRTSERKLRETEEKLQKLRTNIVA
modifications: selenomethionine (SeMet) in place of methionine
notes: MORC2, human, UniProt Q9Y6X9, residues 901-1003; The methods say 'MORC2 CC3 fused with a GPGS linker'; also called CC3 dimer; source: E. coli B834 in M9 medium with selenomethionine, purified (SEC, Superdex 75)
B2: full-length human MORC2 (MORC2FL, residues 1-1032) (natural protein, UniProt Q9Y6X9 1-1032, looked up)
chain: MAFTNYSSLNRAQLTFEYLHTNSTTHEFLFGALAELVDNARDADATRIDIYAERREDLRGGFMLCFLDDGAGMDPSDAASVIQFGKSAKRTPESTQIGQYGNGLKSGSMRIGKDFILFTKKEDTMTCLFLSRTFHEEEGIDEVIVPLPTWNARTREPVTDNVEKFAIETELIYKYSPFRTEEEVMTQFMKIPGDSGTLVIIFNLKLMDNGEPELDIISNPRDIQMAETSPEGTKPERRSFRAYAAVLYIDPRMRIFIHGHKVQTKRLSCCLYKPRMYKYTSSRFKTRAEQEVKKAEHVARIAEEKAREAESKARTLEVRLGGDLTRDSRVMLRQVQNRAITLRREADVKKRIKEAKQRALKEPKELNFVFGVNIEHRDLDGMFIYNCSRLIKMYEKVGPQLEGGMACGGVVGVVDVPYLVLEPTHNKQDFADAKEYRHLLRAMGEHLAQYWKDIAIAQRGIIKFWDEFGYLSANWNQPPSSELRYKRRRAMEIPTTIQCDLCLKWRTLPFQLSSVEKDYPDTWVCSMNPDPEQDRCEASEQKQKVPLGTFRKDMKTQEEKQKQLTEKIRQQQEKLEALQKTTPIRSQADLKKLPLEVTTRPSTEEPVRRPQRPRSPPLPAVIRNAPSRPPSLPTPRPASQPRKAPVISSTPKLPALAAREEASTSRLLQPPEAPRKPANTLVKTASRPAPLVQQLSPSLLPNSKSPREVPSPKVIKTPVVKKTESPIKLSPATPSRKRSVAVSDEEEVEEEAERRKERCKRGRFVVKEEKKDSNELSDSAGEEDSADLKRAQKDKGLHVEVRVNREWYTGRVTAVEVGKHVVRWKVKFDYVPTDTTPRDRWVEKGSEDVRLMKPPSPEHQSLDTQQEGGEEEVGPVAQQAIAVAEPSTSECLRIEPDTTALSTNHETIDLLVQILRNCLRYFLPPSFPISKKQLSAMNSDELISFPLKEYFKQYEVGLQNLCNSYQSRADSRAKASEESLRTSERKLRETEEKLQKLRTNIVALLQKVQEDIDINTDDELDAYIEDLITKGD
notes: MORC2, human, UniProt Q9Y6X9, residues 1-1032; cDNA amplified from a HeLa cDNA library; The plasmid is called MORC2-6xHis; Construct details are in Supplementary file 2; source: HEK293F, transiently transfected, purified (Ni-NTA, Superose 6 gel filtration), nucleic acid-free
B3: MORC2 CC3 domain (residues 901-1003) (domain or fragment, human, UniProt Q9Y6X9 901-1003, looked up)
chain: B1 chain
notes: MORC2, human, UniProt Q9Y6X9, residues 901-1003; Cloned in a modified pET32m vector (Trx-tag); Used unlabelled for SEC-SLS and uniformly 15N-labelled for the NMR titration; The methods say fragments carry a GPGS linker; also called MORC2^901-1003; coiled-coil 3; source: E. coli, purified (Ni-NTA, SEC); 15N-labelled from M9 medium for NMR
B4: Trx-901-975 (CC3 truncation) (domain or fragment, human, UniProt Q9Y6X9 901-975, looked up)
chain: LSTNHETIDLLVQILRNCLRYFLPPSFPISKKQLSAMNSDELISFPLKEYFKQYEVGLQNLCNSYQSRADSRAKA
notes: MORC2, human, UniProt Q9Y6X9, residues 901-975; The Trx tag points to the bacterial pET32m-type vector; Construct details are in Supplementary file 2; also called truncated CC3 constructs (residues 901-975); CC3 N-terminal region
B5: MORC2 CTDΔCW (residues 537-1032) (domain or fragment, human, UniProt Q9Y6X9 537-1032, looked up)
chain: EASEQKQKVPLGTFRKDMKTQEEKQKQLTEKIRQQQEKLEALQKTTPIRSQADLKKLPLEVTTRPSTEEPVRRPQRPRSPPLPAVIRNAPSRPPSLPTPRPASQPRKAPVISSTPKLPALAAREEASTSRLLQPPEAPRKPANTLVKTASRPAPLVQQLSPSLLPNSKSPREVPSPKVIKTPVVKKTESPIKLSPATPSRKRSVAVSDEEEVEEEAERRKERCKRGRFVVKEEKKDSNELSDSAGEEDSADLKRAQKDKGLHVEVRVNREWYTGRVTAVEVGKHVVRWKVKFDYVPTDTTPRDRWVEKGSEDVRLMKPPSPEHQSLDTQQEGGEEEVGPVAQQAIAVAEPSTSECLRIEPDTTALSTNHETIDLLVQILRNCLRYFLPPSFPISKKQLSAMNSDELISFPLKEYFKQYEVGLQNLCNSYQSRADSRAKASEESLRTSERKLRETEEKLQKLRTNIVALLQKVQEDIDINTDDELDAYIEDLITKGD
notes: MORC2, human, UniProt Q9Y6X9, residues 537-1032; Bacterial constructs were made with MBP or Trx fusion proteins; Which one was used here, and whether it was kept, is in Supplementary file 2; source: Escherichia coli, purified
B6: MORC2 fragment 744-1032 (domain or fragment, human, UniProt Q9Y6X9 744-1032, looked up)
chain: DEEEVEEEAERRKERCKRGRFVVKEEKKDSNELSDSAGEEDSADLKRAQKDKGLHVEVRVNREWYTGRVTAVEVGKHVVRWKVKFDYVPTDTTPRDRWVEKGSEDVRLMKPPSPEHQSLDTQQEGGEEEVGPVAQQAIAVAEPSTSECLRIEPDTTALSTNHETIDLLVQILRNCLRYFLPPSFPISKKQLSAMNSDELISFPLKEYFKQYEVGLQNLCNSYQSRADSRAKASEESLRTSERKLRETEEKLQKLRTNIVALLQKVQEDIDINTDDELDAYIEDLITKGD
notes: MORC2, human, UniProt Q9Y6X9, residues 744-1032; The expression system and tags are in Supplementary file 2
B7: Trx-tagged MORC2 901-1032 Y921A (domain or fragment, human, UniProt Q9Y6X9 901-1032, looked up)
chain: LSTNHETIDLLVQILRNCLRAFLPPSFPISKKQLSAMNSDELISFPLKEYFKQYEVGLQNLCNSYQSRADSRAKASEESLRTSERKLRETEEKLQKLRTNIVALLQKVQEDIDINTDDELDAYIEDLITKGD
notes: MORC2, human, UniProt Q9Y6X9, residues 901-1032 with Y921A; the same legend also prints residue 921 as F921; source: E. coli, purified
B8: Trx-tagged MORC2 901-1032 I908Q (domain or fragment, human, UniProt Q9Y6X9 901-1032, looked up)
chain: B7 chain with I8Q, A21Y
notes: MORC2, human, UniProt Q9Y6X9, residues 901-1032 with I908Q; source: E. coli, purified
B9: Trx-tagged MORC2 901-1032 F951Q (domain or fragment, human, UniProt Q9Y6X9 901-1032, looked up)
chain: B7 chain with A21Y, F51Q
notes: MORC2, human, UniProt Q9Y6X9, residues 901-1032 with F951Q; source: E. coli, purified
B10: Trx-tagged MORC2 901-1032 L958Q (domain or fragment, human, UniProt Q9Y6X9 901-1032, looked up)
chain: B7 chain with A21Y, L58Q
notes: MORC2, human, UniProt Q9Y6X9, residues 901-1032 with L958Q; source: E. coli, purified
B11: Trx-tagged MORC2 901-1032 L911Q (domain or fragment, human, UniProt Q9Y6X9 901-1032, looked up)
chain: B7 chain with L11Q, A21Y
notes: MORC2, human, UniProt Q9Y6X9, residues 901-1032 with L911Q; source: E. coli, purified
B12: wild-type MORC2 901-1032 with Trx-tag (domain or fragment, human, UniProt Q9Y6X9 901-1032, looked up)
chain: B7 chain with A21Y
notes: MORC2, human, UniProt Q9Y6X9, residues 901-1032; Cloned in a modified pET32m vector with Trx-tag (14 kDa); also called WT MORC2^901-1032 (with Trx-tag); WT CC3-IBD; source: E. coli, purified (Ni-NTA, SEC)
B13: Trx-tagged MORC2 901-1032 Y954A (domain or fragment, human, UniProt Q9Y6X9 901-1032, looked up)
chain: B7 chain with A21Y, Y54A
notes: MORC2, human, UniProt Q9Y6X9, residues 901-1032 with Y954A; source: E. coli, purified
B14: Trx-tagged MORC2 901-1032 L915Q (domain or fragment, human, UniProt Q9Y6X9 901-1032, looked up)
chain: B7 chain with L15Q, A21Y
notes: MORC2, human, UniProt Q9Y6X9, residues 901-1032 with L915Q; source: E. coli, purified
B15: MORC2 CC3-IBD (residues 901-1032) (domain or fragment, human, UniProt Q9Y6X9 901-1032, looked up)
chain: B7 chain with A21Y
notes: MORC2, human, UniProt Q9Y6X9, residues 901-1032; The legend names no Trx tag on it, and it may be the same as the Trx-tagged m4; The methods say fragments carry a GPGS linker; Construct details are in Supplementary file 2; also called MORC2^901-1032
B16: Trx-tagged MORC2 901-1032 F922Q (domain or fragment, human, UniProt Q9Y6X9 901-1032, looked up)
chain: B7 chain with A21Y, F22Q
notes: MORC2, human, UniProt Q9Y6X9, residues 901-1032 with F922Q; source: E. coli, purified

Target: the molecule itself
Assay: crystal structure; SeMet CC3 (901-1003); sitting drop, 0.1 M citric acid pH 3.5, 25% w/v PEG 3350, 16 °C; 3.1 Å

| Protein | binding result |
| --- | --- |
| B1 | binds |

Target: the molecule itself
Assay: SEC-MALS; size-exclusion chromatography with static light scattering (miniDawn); MORC2FL at 70 μM; 50 mM Tris-HCl pH 8.0, 1000 mM NaCl, 1 mM EDTA, 1 mM DTT; no ATP; also run with 601 DNA

| Protein | stoichiometry N |
| --- | --- |
| B2 | 2 |

Target: the molecule itself
Assay: SEC-MALS; size-exclusion chromatography with static light scattering (miniDawn); fragments at 70 μM; Superdex 200 increase or Superose 6 increase; 50 mM Tris-HCl pH 8.0, 150 mM NaCl, 1 mM EDTA, 1 mM DTT

| Protein | stoichiometry N | binding result |
| --- | --- | --- |
| B3 | 2 |  |
| B4 | 2 |  |
| B5 | 2 |  |
| B6 | 2 |  |
| B7 |  | binds |
| B8 |  | binds |
| B9 |  | binds |
| B10 |  | binds |
| B11 |  | binds |
| B12 | 2 |  |
| B13 |  | binds |
| B14 |  | binds |
| B15 | 2 |  |
| B16 |  | binds |
